Results taken from patent publication EP4682166A1 (Guangzhou Enmai Biotechnology Co., Ltd, dated 2026).

T1: human NMI (N-myc Interacting protein), recombinant protein (human, UniProt Q13287 1-307, limits assumed)
T1 construct: Gene ID: 9111; also called hNMI; antigen
T1 sequence (looked up): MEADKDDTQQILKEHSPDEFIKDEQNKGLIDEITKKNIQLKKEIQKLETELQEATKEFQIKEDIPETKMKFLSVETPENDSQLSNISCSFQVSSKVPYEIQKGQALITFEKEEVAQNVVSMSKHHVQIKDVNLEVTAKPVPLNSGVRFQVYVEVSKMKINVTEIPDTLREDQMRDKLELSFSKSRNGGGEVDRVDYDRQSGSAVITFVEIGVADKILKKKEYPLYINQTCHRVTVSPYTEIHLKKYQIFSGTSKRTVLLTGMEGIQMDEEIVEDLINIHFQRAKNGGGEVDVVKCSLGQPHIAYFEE


Assays:
[1] = target: T1, human NMI (N-myc Interacting protein), …; assay: sandwich ELISA; detection 94C4-1-biotin 0.5µg/mL; hNMI 781.250 pg/mL
[2] = target: T1, human NMI (N-myc Interacting protein), …; assay: sandwich ELISA; detection 94C4-1-biotin 1µg/mL; hNMI 25,000.000 pg/mL
[3] = target: T1, human NMI (N-myc Interacting protein), …; assay: sandwich ELISA; detection 94C4-1-biotin 1µg/mL; hNMI 195.313 pg/mL
[4] = target: T1, human NMI (N-myc Interacting protein), …; assay: sandwich ELISA; detection 94C4-1-biotin 1µg/mL; hNMI 6,250.000 pg/mL
[5] = target: T1, human NMI (N-myc Interacting protein), …; assay: sandwich ELISA; detection 94C4-1-biotin 1µg/mL; hNMI 48.828 pg/mL
[6] = target: T1, human NMI (N-myc Interacting protein), …; assay: sandwich ELISA; detection 94C4-1-biotin 0.5µg/mL; hNMI 390.625 pg/mL
[7] = target: T1, human NMI (N-myc Interacting protein), …; assay: indirect ELISA, coated hNMI
[8] = target: T1, human NMI (N-myc Interacting protein), …; assay: sandwich ELISA; detection 94C4-1-biotin 1µg/mL; hNMI 3,125.000 pg/mL
[9] = target: T1, human NMI (N-myc Interacting protein), …; assay: sandwich ELISA; detection 94C4-1-biotin 1µg/mL; hNMI 1,562.500 pg/mL
[10] = target: T1, human NMI (N-myc Interacting protein), …; assay: sandwich ELISA; detection 98G10-1-biotin; hNMI 100.000 ng/mL
[11] = target: T1, human NMI (N-myc Interacting protein), …; assay: sandwich ELISA; detection 94C4-1-biotin 0.5µg/mL; hNMI 195.313 pg/mL
[12] = target: T1, human NMI (N-myc Interacting protein), …; assay: sandwich ELISA; detection 94C4-1-biotin 1µg/mL; hNMI 50,000.000 pg/mL
[13] = target: T1, human NMI (N-myc Interacting protein), …; assay: sandwich ELISA; detection 94C4-1-biotin 0.5µg/mL; hNMI 50,000.000 pg/mL
[14] = target: T1, human NMI (N-myc Interacting protein), …; assay: sandwich ELISA; detection 94C4-1-biotin 0.5µg/mL; hNMI 48.828 pg/mL
[15] = target: T1, human NMI (N-myc Interacting protein), …; assay: sandwich ELISA; detection 94C4-1-biotin 0.5µg/mL; hNMI 25,000.000 pg/mL
[16] = target: T1, human NMI (N-myc Interacting protein), …; assay: sandwich ELISA; detection 98G10-1-biotin; hNMI 11.111 ng/mL
[17] = target: T1, human NMI (N-myc Interacting protein), …; assay: sandwich ELISA; detection 39B4-1-biotin; hNMI 11.111 ng/mL
[18] = target: T1, human NMI (N-myc Interacting protein), …; assay: sandwich ELISA; detection 39B4-1-biotin; hNMI 1.235 ng/mL
[19] = target: T1, human NMI (N-myc Interacting protein), …; assay: sandwich ELISA; detection 94C4-1-biotin 0.5µg/mL; hNMI 1,562.500 pg/mL
[20] = target: T1, human NMI (N-myc Interacting protein), …; assay: sandwich ELISA; detection 39B4-1-biotin; hNMI 3.704 ng/mL
[21] = target: T1, human NMI (N-myc Interacting protein), …; assay: sandwich ELISA; detection 39B4-1-biotin; hNMI 100.000 ng/mL
[22] = target: T1, human NMI (N-myc Interacting protein), …; assay: sandwich ELISA; detection 98G10-1-biotin; hNMI 33.333 ng/mL
[23] = target: T1, human NMI (N-myc Interacting protein), …; assay: sandwich ELISA; detection 94C4-1-biotin 0.5µg/mL; hNMI 3,125.000 pg/mL

| OD450 [1] [OD450] | OD450 [2] [OD450] | OD450 [3] [OD450] | OD450 [4] [OD450] | OD450 [5] [OD450] | OD450 [6] [OD450] | EC50 [7] [µg/mL] | OD450 [8] [OD450] | OD450 [9] [OD450] | OD450 [10] [OD450] | OD450 [11] [OD450] | OD450 [12] [OD450] | OD450 [13] [OD450] | OD450 [14] [OD450] | OD450 [15] [OD450] | OD450 [16] [OD450] | OD450 [17] [OD450] | OD450 [18] [OD450] | OD450 [19] [OD450] | OD450 [20] [OD450] | Binder | other results |
| --- | --- | --- | --- | --- | --- | --- | --- | --- | --- | --- | --- | --- | --- | --- | --- | --- | --- | --- | --- | --- | --- |
| 0.396 | 2.75 | 0.212 | 1.47 | 0.167 | 0.268 | 0.0477 | 0.958 | 0.568 | 3.14 | 0.187 | 3.1 | 3.33 | 0.125 | 2.94 | 1.7 | 1.71 | 0.35 | 0.907 | 0.785 | monoclonal antibody 240B10-1 (antibody, V domains shown, Rabbit monoclonal antibody) VH: QSLEESGGRLVTPGGSLTLTCTVSGIDLSSYTMGWVRQAPGKGLEYIGIISGGGRTYYASWAKGRFTISKTSSTTVDLKVTSLTTEDTATYFCARIYTLWGQGTLVTVSS VL: QVLTQTLASVSAAVGGTVTINCQSSQSVYNNDYLAWFQQKSGQPPKQLIHSASKLASGVPSRFKGSGSGTQFTLTINDVQCDDAATYYCLGGYDCYSADCNVFGGGTEVVVK | OD450 [21]: 3.12 OD450; OD450 [22]: 2.56 OD450; OD450 [23]: 1.29 OD450 |
| 0.265 | 2.79 | 0.173 | 1.3 | 0.139 | 0.178 | 0.0444 | 0.75 | 0.446 | 3.02 | 0.134 | 3.11 | 3.17 | 0.102 | 2.71 | 1.38 | 1.25 | 0.291 | 0.42 | 0.563 | monoclonal antibody B-8 (antibody, V domains shown, Rabbit monoclonal antibody; also called B8-1) VH: QSLEESGGDLVKPGASLTLTCTASGFSFSSSYYMCWVRQAPGKGLEWIACIYAGSSGSTYYASWAKGRFTISKTSSTTVTLQMTSLTAADTATYFCAREYSYDDYGDFWGFNLWGPGTLVTVSS VL: ALVMTQTPSSVSAAVGGTVTINCQASQNIYTNLAWYQQKPGQPPKLLIYGASNLESGVPSRFKGSGSGTEYTLTISDLECDDAATYYCQSSLYSRIADRANAFGGGTEVVVK | OD450 [21]: 3.07 OD450; OD450 [22]: 2.48 OD450; OD450 [23]: 0.712 OD450 |
